The values that follow come from patent US20060222643A1 (Chugai, published 2006).

The target in assay [1] is human Mpl expressed on BaF3 cells (BaF3-human Mpl) (human) (UniProt P40238). Kind of assay: cell-based or functional assay.
Assay [2] addresses T1, human Mpl expressed on BaF3 cells (BaF3-human Mpl) (human, UniProt P40238 26-635).
T1 sequence: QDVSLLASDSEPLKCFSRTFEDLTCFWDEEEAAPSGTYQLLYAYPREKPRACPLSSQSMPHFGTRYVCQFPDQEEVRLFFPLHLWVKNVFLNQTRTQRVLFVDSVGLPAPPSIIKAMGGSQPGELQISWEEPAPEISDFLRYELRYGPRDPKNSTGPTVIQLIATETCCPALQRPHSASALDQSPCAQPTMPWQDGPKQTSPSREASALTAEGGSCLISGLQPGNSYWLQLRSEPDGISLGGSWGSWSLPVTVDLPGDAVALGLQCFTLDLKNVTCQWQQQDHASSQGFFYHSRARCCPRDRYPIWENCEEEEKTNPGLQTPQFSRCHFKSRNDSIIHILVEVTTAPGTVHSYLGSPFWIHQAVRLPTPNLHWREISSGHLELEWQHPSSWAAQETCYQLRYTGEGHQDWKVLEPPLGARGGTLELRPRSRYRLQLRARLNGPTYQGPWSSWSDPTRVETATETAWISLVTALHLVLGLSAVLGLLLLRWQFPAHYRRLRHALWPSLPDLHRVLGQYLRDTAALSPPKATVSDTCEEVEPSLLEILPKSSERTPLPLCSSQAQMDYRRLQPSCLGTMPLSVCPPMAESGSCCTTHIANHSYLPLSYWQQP
Kind of assay: cell-based or functional assay.

The target of assay [3] is T2, cynomolgus monkey Mpl expressed on CHO cells (CHO-monkey Mpl) (cynomolgus monkey, UniProt P40238 26-635 (human entry)).
T2 construct: pCXND3-monkey Mpl-His in CHO-DG44; also called monkey Mpl-His
T2 chain: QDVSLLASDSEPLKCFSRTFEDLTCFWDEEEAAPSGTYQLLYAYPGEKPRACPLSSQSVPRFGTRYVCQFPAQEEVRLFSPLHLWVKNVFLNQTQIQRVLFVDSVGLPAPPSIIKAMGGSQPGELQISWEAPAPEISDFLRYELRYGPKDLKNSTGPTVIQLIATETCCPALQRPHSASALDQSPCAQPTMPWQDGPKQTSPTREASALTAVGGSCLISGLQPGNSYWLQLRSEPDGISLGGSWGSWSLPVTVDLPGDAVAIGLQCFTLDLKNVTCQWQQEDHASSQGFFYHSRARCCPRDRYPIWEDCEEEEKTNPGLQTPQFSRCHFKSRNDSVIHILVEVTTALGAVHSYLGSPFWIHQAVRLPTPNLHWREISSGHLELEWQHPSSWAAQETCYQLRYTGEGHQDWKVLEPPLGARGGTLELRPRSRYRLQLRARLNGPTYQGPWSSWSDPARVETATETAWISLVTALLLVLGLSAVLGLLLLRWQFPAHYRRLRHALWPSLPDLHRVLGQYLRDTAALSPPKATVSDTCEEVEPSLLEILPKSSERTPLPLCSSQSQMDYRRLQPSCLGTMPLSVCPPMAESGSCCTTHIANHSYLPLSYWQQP
Kind of assay: flow cytometry on CHO-monkey Mpl cells; COS7 culture supernatant; detection with anti-FLAG M2 antibody and FITC-labeled anti-mouse IgG. On the procedure:
(§1) CHO-human Mpl, CHO-monkey Mpl, and CHO-mouse Mpl cells were recovered and suspended in FACS buffer (1% FBS/PBS) to a final concentration of 1×10⁶ cells/mL. Cell suspensions were aliquoted at 100-μL/well into the Multiscreen-HV Filter Plates (Millipore). After centrifugation, the supernatant was removed. An appropriate concentration of diabody or sc(Fv)2 was added into each well and incubated on ice for 30 min. The cells were washed once with 200 μL of FACS buffer, and incubated on ice for 30 min following the addition of 10 μg/mL ANTI-FLAG® M2 Monoclonal Antibody (Sigma-Aldrich). The cells were then washed once with 200 μL of FACS buffer, and a 100×-diluted FITC-labeled anti-mouse IgG antibody (Beckman Coulter) was added to the plate. The plate was incubated on ice for 30 min. After centrifugation, the supernatant was removed. The cells were suspended in 400 μL of FACS Buffer, and then analyzed by flow cytometry using EPICS ELITE ESP (Beckman Coulter). An analysis gate was set on the forward and side scatters of a histogram to include viable cell populations.
(§2) The binding activities of the diabodies were assessed by flow cytometry using CHO cells that express Mpl derived from various species (FIG. 8). AB317 was proven to bind to CHO-mouse Mpl.

The target of assay [4] is T3, mouse Mpl expressed on CHO cells (CHO-mouse Mpl) (mouse, UniProt Q08351 26-625).
T3 construct: whole, on cells; pCXND3-mouse Mpl-His in CHO-DG44; also called mouse Mpl-His
T3 sequence (looked up): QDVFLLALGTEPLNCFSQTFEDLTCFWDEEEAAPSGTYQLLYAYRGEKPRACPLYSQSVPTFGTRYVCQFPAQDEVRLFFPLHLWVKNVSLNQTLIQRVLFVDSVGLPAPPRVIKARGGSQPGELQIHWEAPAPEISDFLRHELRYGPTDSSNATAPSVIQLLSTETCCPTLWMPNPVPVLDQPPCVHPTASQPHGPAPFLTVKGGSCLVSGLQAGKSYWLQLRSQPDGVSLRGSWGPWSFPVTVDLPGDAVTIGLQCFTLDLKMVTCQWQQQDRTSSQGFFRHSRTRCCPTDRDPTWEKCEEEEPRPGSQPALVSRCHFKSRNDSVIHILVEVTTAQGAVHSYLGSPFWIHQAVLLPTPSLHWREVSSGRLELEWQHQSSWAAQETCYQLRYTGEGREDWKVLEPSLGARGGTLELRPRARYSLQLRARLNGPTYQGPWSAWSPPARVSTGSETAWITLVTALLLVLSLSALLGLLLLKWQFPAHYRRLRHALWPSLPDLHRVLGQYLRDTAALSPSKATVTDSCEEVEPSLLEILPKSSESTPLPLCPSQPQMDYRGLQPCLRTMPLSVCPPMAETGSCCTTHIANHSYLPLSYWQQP
Kind of assay: flow cytometry on CHO-mouse Mpl cells; COS7 culture supernatant; detection with anti-FLAG M2 antibody and FITC-labeled anti-mouse IgG. The protocol: as §1, §2
In general terms: Flow cytometry measures light scatter and fluorescence of single cells or particles in a stream.

The target of assay [5] is T4, MG10 (Gln213 to Ala231)-GST fusion protein (human, also: fused with GST).
T4 construct: As MG1; also called MG10-GST fusion protein; GST fusion protein containing MG10; not shown: glutathione-S-transferase of vector pGEX-4T-3 (Amersham Biosciences)
T4 chain: QPTMPWQDGPKQTSPSREA
As to the kind of experiment: SPR, Biacore 3000, MG10-GST immobilized on CM5, Bivalent analyte model (constants as for the monovalent antibody), triplicate. On the procedure: The Sensor Chip CM5 (Biacore) was placed in Biacore 3000 (Biacore), and MG10-GST fusion protein was immobilized onto the chip by amine-coupling methods. HBS-EP Buffer (Biacore) was used as the running buffer, and the flow rate was 20 μL/min. 5.5 to 175.0 nM of VB22B IgG solution was prepared using HBS-EP Buffer, and injected over each of the chip surfaces for 2 min to obtain the binding region at the respective concentrations. Then, dissociation region for the 2 minutes was measured. VB22B IgG bound to the MG10-GST fusion protein on the sensor chip was removed by injecting 20 mM HCl over the sensor chip for 1 min, and the chip was recovered. Similarly, 4.7 to 150.1 nM of VB22B sc(Fv)2, 5.3 to 168.9 nM of hVB22B q-wz5 sc(Fv)2, and 4.9 to 156.8 nM of hVB22B u2-wz4 sc(Fv)2 were prepared and injected over the chip surfaces onto which MG10-GST fusion protein was immobilized, and the measurement was carried out.
All the antibodies used were bivalent antibodies, and thus the sensorgrams at each concentration were obtained in the presence of both monovalent and bivalent bindings. In this context, the reaction rate constant was determined as that for the monovalent antibody by analysis using the Bivalent analyte model of BIAevaluation ver.3.1 software (Biacore). The above analysis was carried out in triplicates for each antibody. The binding rate constant (ka), dissociation rate constant (kd), and dissociation constant (KD) were determined as those for the monovalent antibody by the procedure described above. The constants are indicated below in Table 1.

For assay [6], the target named is T2, cynomolgus monkey Mpl expressed on CHO …. As to the kind of experiment: flow cytometry on CHO cells, detection by anti-FLAG M2 and FITC anti-mouse IgG. On the procedure: as §1
(§3) The binding activity of the purified VB22B sc(Fv)2 to various Mpl molecules expressed in CHO cells was determined (FIG. 2).

Assay [7] deals with T3, mouse Mpl expressed on CHO cells …. The description is as above. On the procedure:
as §1, §3

No end group written: not given here.

With “recombinant human thrombopoietin (rhTPO, R&D) (from UniProt P40225 22-353) (ligand)”, the agonistic activity, EC50 (growth of BaF3-human Mpl, WST-8) in assay [1] turned out to be 0.076 nM.

B1: VB22B diabody (scFv)
scFv: QVQLQQSGPELVKPGASVKISCKASGYAFTNSWMNWVKQRPGKGLEWIGRIYPGDGETIYNGKFRVKATLTADKSSSTAYMDISSLTSEDSAVYFCARGYDDYSFAYWGQGTLVTVSAGGGGSDIVMTQAAPSIPVTPGESVSISCRSSKSLLHSNGNTYLYWFLQRPGQSPQLLIYRMSNLASGVPDRFSGSGSGTAFTLRISRVEAEDVGVYYCMQHIEYPFTFGSGTKLEIK
notes: also called VB22B db; VB22B single-chain Fv
As for B1, the “TPO-like agonistic activity, EC50 (growth of BaF3-human Mpl, WST-8)” value in assay [2] came out at 0.061 nM. The binding result is recorded as “binds” in assay [3] and “no binding” in assay [4].

B2: hVB22B q-wz5 sc(Fv)2 (scFv)
chain: QVQLVQSGPEVKKPGASVKVSCKASGYTFTNSWMNWVRQRPGKGLEWIGRIYPGDGETIYNGKFRVRVTITADESTSTAYMELSSLRSEDTAVYYCARGYDDYSFAYWGQGTTVTVSSGGGGSGGGGSGGGGSDIVMTQSPLSLPVTPGEPASISCRSSKSLLHSNGNTYLYWFQQKPGQAPRLLIYRMSNLASGVPDRFSGSGSGTAFTLKISRVEAEDVGVYYCMQHIEYPFTFGQGTKLEIKGGGGSGGGGSGGGGSQVQLVQSGPEVKKPGASVKVSCKASGYTFTNSWMNWVRQRPGKGLEWIGRIYPGDGETIYNGKFRVRVTITADESTSTAYMELSSLRSEDTAVYYCARGYDDYSFAYWGQGTTVTVSSGGGGSGGGGSGGGGSDIVMTQSPLSLPVTPGEPASISCRSSKSLLHSNGNTYLYWFQQKPGQAPRLLIYRMSNLASGVPDRFSGSGSGTAFTLKISRVEAEDVGVYYCMQHIEYPFTFGQGTKLEIK
notes: Humanized sc(Fv)2 without Flag tag, purified on an MG10-GST column; also called humanized VB22B sc(Fv)2 (q-wz5)
As a reminder, the koff is the first-order rate constant of dissociation. The kon is the rate constant with which the complex forms. Consider B2, for which, in assay [5], the Kd amounted to 13.6 nM, the koff was found to be 0.0051 s⁻¹ and the kon stood at 376000 M⁻¹ s⁻¹.

B3: hVB22B u2-wz4 sc(Fv)2 (scFv)
chain: QVQLVQSGPEVKKPGASVKVSCKASGYTFTNSWMNWVRQRPGKGLEWIGRIYPGDGETIYNGKFRVRVTITADESTSTAYMQLSSLRSEDTAVYYCARGYDDYSFAYWGQGTTVTVSSGGGGSGGGGSGGGGSDIVMTQSPLSLPVTPGEPASISCRSSKSLLHSNGNTYLYWFLQKPGQSPQLLIYRMSNLASGVPDRFSGSGSGTDFTLKISRVEAEDVGVYYCMQHIEYPFTFGQGTKLEIKGGGGSGGGGSGGGGSQVQLVQSGPEVKKPGASVKVSCKASGYTFTNSWMNWVRQRPGKGLEWIGRIYPGDGETIYNGKFRVRVTITADESTSTAYMQLSSLRSEDTAVYYCARGYDDYSFAYWGQGTTVTVSSGGGGSGGGGSGGGGSDIVMTQSPLSLPVTPGEPASISCRSSKSLLHSNGNTYLYWFLQKPGQSPQLLIYRMSNLASGVPDRFSGSGSGTDFTLKISRVEAEDVGVYYCMQHIEYPFTFGQGTKLEIK
notes: Humanized sc(Fv)2 without Flag tag, purified on an MG10-GST column; also called humanized VB22B sc(Fv)2 (u2-wz4)
Take B3: in assay [5], the Kd turned out to be 10.2 nM, the koff came out at 0.00617 s⁻¹ and the kon is 608000 M⁻¹ s⁻¹.

B4: VB22B sc(Fv)2 (scFv)
chain: QVQLQQSGPELVKPGASVKISCKASGYAFTNSWMNWVKQRPGKGLEWIGRIYPGDGETIYNGKFRVKATLTADKSSSTAYMDISSLTSEDSAVYFCARGYDDYSFAYWGQGTLVTVSAGGGGSGGGGSGGGGSDIVMTQAAPSIPVTPGESVSISCRSSKSLLHSNGNTYLYWFLQRPGQSPQLLIYRMSNLASGVPDRFSGSGSGTAFTLRISRVEAEDVGVYYCMQHIEYPFTFGSGTKLEIKGGGGSGGGGSGGGGSQVQLQQSGPELVKPGASVKISCKASGYAFTNSWMNWVKQRPGKGLEWIGRIYPGDGETIYNGKFRVKATLTADKSSSTAYMDISSLTSEDSAVYFCARGYDDYSFAYWGQGTLVTVSAGGGGSGGGGSGGGGSDIVMTQAAPSIPVTPGESVSISCRSSKSLLHSNGNTYLYWFLQRPGQSPQLLIYRMSNLASGVPDRFSGSGSGTAFTLRISRVEAEDVGVYYCMQHIEYPFTFGSGTKLEIK
notes: Single-chain (Fv)2 with 15-residue linkers, purified on anti-Flag gel (FLAG-tagged); also called murine VB22B sc(Fv)2; anti-human Mpl sc(Fv)2
For B4, in assay [6], the binding result is on record as “binds”. Moreover, the binding result in assay [7] was “no binding”. Moreover, the “TPO-like agonistic activity, EC50 (growth of BaF3-human Mpl, WST-8)” value in assay [2] worked out at 0.027 nM. In assay [5], this molecule gave a Kd of 11.7 nM, a koff of 0.00491 s⁻¹ and a kon of 423000 M⁻¹ s⁻¹.
